This note sets out measurements from publication PMC9638917, “Non-canonical Staphylococcus aureus pathogenicity island repression”.

Data set [1] addresses SaPI1 Stl repressor L201E mutant (Stl^(SaPI1 L201E)), expressed alone (Staphylococcus aureus (pathogenicity island SaPI1)). Nature of the data set: SEC-MALS; 2 mg/ml, Stl alone or in complex with Sri; 50 mM Tris-HCl pH 7.5, 250 mM NaCl, 5 mM MgCl2; Protein KW403 column (Shodex), 0.4 ml/min. (In general: SEC sorts molecules by how far they enter the pores of the column.)
For data set [2], the target named is SaPI1 Stl repressor L201E mutant (Stl^(SaPI1 L201E)), untagged, co-expressed with His6-Sri (Staphylococcus aureus (pathogenicity island SaPI1)). The data set can be described thus: crystal structure; 80α Sri-Stl^(SaPI1 L201E), His6-tag of Sri removed; sitting drop, 15 °C, 0.1 M Tris-HCl pH 8.5, 22% PEG350; molecular replacement, 2.97 Å.
The target of data set [3] is SaPI1 Stl repressor (Stl^SaPI1), expressed alone with an N-terminal His6-tag and TEV site (Staphylococcus aureus (pathogenicity island SaPI1)). The data set can be described thus: SEC-SAXS; 10.0 mg/ml Stl^SaPI1 and 6.5 mg/ml Stl^SaPI1-Sri (His6 tag on Sri); Superdex 200 Increase 3.2, 10 mM Tris pH 8, 1% (w/v) sucrose; mass by Bayesian inference.
For data set [4] the target is unchanged. Nature of the data set: SEC-MALS; 2 mg/ml, Stl alone or in complex with Sri; 50 mM Tris-HCl pH 7.5, 250 mM NaCl, 5 mM MgCl2; Protein KW403 column (Shodex), 0.4 ml/min.
Data set [5] concerns the target SaPI1 Stl repressor (Stl^SaPI1), untagged, co-expressed with His6-Sri (Staphylococcus aureus (pathogenicity island SaPI1)). The data set can be described thus: SEC-SAXS; 10.0 mg/ml Stl^SaPI1 and 6.5 mg/ml Stl^SaPI1-Sri (His6 tag on Sri); Superdex 200 Increase 3.2, 10 mM Tris pH 8, 1% (w/v) sucrose; mass by Bayesian inference.
Data set [6] shares this target. Nature of the data set: SEC-MALS; 2 mg/ml, Stl alone or in complex with Sri; 50 mM Tris-HCl pH 7.5, 250 mM NaCl, 5 mM MgCl2; Protein KW403 column (Shodex), 0.4 ml/min.
Data set [7] shares this target. The data set can be described thus: crystal structure; 80α Sri-Stl^SaPI1 SeMet derivative, His6-tag of Sri removed; sitting drop, 15 °C, 0.4 M ammonium phosphate, 25% PEG200; SAD, 2.9 Å.
The next data set has as its target StlSaPI1 (Staphylococcus aureus pathogenicity …, UniProt O54475 1-247). Nature of the data set: EMSA; two complex species; BLI: 50 mM Tris-HCl pH 8, 300 mM NaCl, 5 mM MgCl2, 50 uM EDTA, 0.005% Tween, 25 C; EMSA: 50 mM Tris-HCl pH 8, 5 mM MgCl2, 1 mM DTT, 0.1 mM EDTA, 5% glycerol, 1. Particulars: protein: recombinant; tags: N-terminal His6 + TEV site; chain copies: 4; near blunt as printed. (In EMSA bound probe runs differently from free probe, usually more slowly.)

In general, stoichiometry N refers to the number of molecules, sites or subunits per partner or assembly. As for “SaPI1 Stl repressor L201E mutant (Stl^(SaPI1 L201E)), expressed alone (natural protein)”, the stoichiometry N in data set [1] was 2.
In data set [2], “SaPI1 Stl repressor L201E mutant (Stl^(SaPI1 L201E)), untagged, co-expressed with His6-Sri (natural protein)” showed a stoichiometry N of 2.
As for “SaPI1 Stl repressor (Stl^SaPI1), expressed alone with an N-terminal His6-tag and TEV site (natural protein)”, the stoichiometry N in data set [3] and in data set [4] was 4 in each case.
In the case of “SaPI1 Stl repressor (Stl^SaPI1), untagged, co-expressed with His6-Sri (natural protein)”, the stoichiometry N in data set [5], in data set [6] and in data set [7] was 4 each time.

B1: Operator 1-4 (dsDNA)
DNA 1: GGATAAGTTGTACTTTGAGTACAATATTTTAAAAAATGAAAAAAAAAAAAGAAGTGTGTAATATTTGTTTAAAAAACAAAAAAAAAAAAAGTACTTGTAGTACTAAAAGAAC
DNA 2: GGTTCTTTTAGTACTACAAGTACTTTTTTTTTTTTTGTTTTTTAAACAAATATTACACACTTCTTTTTTTTTTTTCATTTTTTAAAATATTGTACTCAAAGTACAACTTATCC
As to B1, the binding result with StlSaPI1 is given as “binds”.
